According to patent US20200239888, “COMPOSITIONS AND METHODS FOR MODULATION OF PROTEIN AGGREGATION” (Ionis Pharmaceuticals, Inc., published 2020):

Target: FUS(1-526)[P525L]-NLUC-FLAG (UniProt P35637 P35637:1-526, P525L)
Experiment: competition; competitive nanoBRET vs AF594-JB39; reported as KD (50% dissociation of BRET pair); table prints NLUC-HA, text NLUC-FLAG
Conditions: tags: C-terminal NLUC-FLAG; PURExpress
Protocol: Competitive NanoBRET binding assays were performed with unlabeled oligonucleotides JB40, JB41, and JB42. First, the relative amount of purified protein per volume of bead suspension (based on nluc activity) was determined in 2× binding buffer (200 mM potassium acetate, 40 mM Tris pH 8.0, 2 mM EDTA, 0.02% NP-40, 6 μg/mL BSA, and 1:1000 Promega Nano-Glo luciferase substrate) using an eight-point dilution curve over ˜3.5 orders of magnitude. Alexafluor594-labeled JB39 was diluted into water in opaque white 96-well plates a single concentration, and varying concentrations of JB40, JB41, or JB42, spanning the pM to low μM range were added to a final total volume of 50 μL/well. 50 μL/well of 2× binding buffer containing 10⁶ RLU (relative luminescence units) beads/well was added and plates were shaken for 10 minutes at room temperature. Nanoluciferase activity and BRET were measured in a Glowmax Discover plate reader and KD values, shown in the table below, were calculated using GraphPad Prism.

FUS(1-526)[P525L]-NLUC-FLAG, sequence (P35637 whole entry P525L, one chain of several): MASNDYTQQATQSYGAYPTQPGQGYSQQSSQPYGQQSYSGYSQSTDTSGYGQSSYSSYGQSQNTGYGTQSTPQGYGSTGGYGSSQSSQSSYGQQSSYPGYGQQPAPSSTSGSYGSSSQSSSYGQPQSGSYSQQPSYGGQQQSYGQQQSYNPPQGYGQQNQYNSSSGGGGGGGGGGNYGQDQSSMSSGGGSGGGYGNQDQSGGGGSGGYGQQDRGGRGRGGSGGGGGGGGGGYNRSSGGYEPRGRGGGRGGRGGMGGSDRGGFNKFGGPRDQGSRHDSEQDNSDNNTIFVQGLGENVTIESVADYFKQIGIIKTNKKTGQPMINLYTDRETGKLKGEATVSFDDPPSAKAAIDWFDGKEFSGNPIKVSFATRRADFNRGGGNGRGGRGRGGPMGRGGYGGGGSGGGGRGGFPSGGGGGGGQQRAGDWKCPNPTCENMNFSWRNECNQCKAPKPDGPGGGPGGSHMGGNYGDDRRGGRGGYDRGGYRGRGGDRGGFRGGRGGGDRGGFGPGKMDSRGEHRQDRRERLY

Binder | IC50 [nM]
CUGCUAGCCUCUGGAUUUGA (ssRNA, full PS) [JB42 (RNA, phosphorothioate)] | 7.2
CTGCTAGCCTCTGGATTTGA (ssDNA, full PS) [JB41 (DNA, phosphorothioate)] | 0.4
